The record followed here is patent US20250206813A1 (NVH MEDICINAL, published 2025).

To fix the notation:
T1: CUB1 domain of PCPE-1 (human, UniProt Q15113 37-149)
T1 construct: domain: CUB1
T1 sequence (looked up): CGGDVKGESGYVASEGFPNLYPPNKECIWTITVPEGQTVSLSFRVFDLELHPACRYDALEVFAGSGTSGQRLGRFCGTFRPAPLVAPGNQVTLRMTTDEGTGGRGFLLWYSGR

T2: PCPE-1 (Procollagen C-proteinase enhancer-1) glycoprotein, human (human, UniProt Q15113 26-449)
T2 construct: mature; Secreted recombinant protein; also called purified human PCPE-1
T2 sequence (looked up): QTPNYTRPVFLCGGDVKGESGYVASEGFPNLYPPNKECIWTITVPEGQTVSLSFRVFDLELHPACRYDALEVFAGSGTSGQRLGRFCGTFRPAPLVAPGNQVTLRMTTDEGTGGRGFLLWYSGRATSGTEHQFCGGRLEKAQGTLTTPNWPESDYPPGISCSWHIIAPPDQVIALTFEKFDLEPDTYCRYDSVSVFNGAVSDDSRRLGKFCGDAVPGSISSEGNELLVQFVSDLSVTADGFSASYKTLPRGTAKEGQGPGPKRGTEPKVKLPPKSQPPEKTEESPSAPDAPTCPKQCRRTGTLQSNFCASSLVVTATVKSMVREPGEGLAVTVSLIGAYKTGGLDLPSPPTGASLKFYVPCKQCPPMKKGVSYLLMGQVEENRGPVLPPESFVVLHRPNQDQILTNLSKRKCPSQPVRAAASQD

T3: CUB2 domain of PCPE-1 (human, UniProt Q15113 159-273)
T3 construct: domain: CUB2
T3 sequence (looked up): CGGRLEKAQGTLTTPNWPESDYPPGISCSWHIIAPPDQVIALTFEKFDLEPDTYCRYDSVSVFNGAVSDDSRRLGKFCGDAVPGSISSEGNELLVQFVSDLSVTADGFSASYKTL

T4: PCPE-2 (with a 6-his N-terminal tag) (UniProt Q9UKZ9 24-415)
T4 construct: not shown: N-terminal 6-His tag
T4 sequence (looked up): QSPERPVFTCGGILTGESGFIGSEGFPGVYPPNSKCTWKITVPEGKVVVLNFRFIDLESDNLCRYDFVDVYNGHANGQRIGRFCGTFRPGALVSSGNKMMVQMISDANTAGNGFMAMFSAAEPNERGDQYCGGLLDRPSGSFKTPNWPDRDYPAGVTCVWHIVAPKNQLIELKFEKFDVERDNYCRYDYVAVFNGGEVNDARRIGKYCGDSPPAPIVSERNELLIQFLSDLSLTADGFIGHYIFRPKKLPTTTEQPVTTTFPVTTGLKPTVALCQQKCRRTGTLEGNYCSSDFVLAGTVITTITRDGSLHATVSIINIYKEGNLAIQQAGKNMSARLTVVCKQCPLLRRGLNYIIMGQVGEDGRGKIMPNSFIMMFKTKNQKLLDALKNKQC

B1: VHH-I3 (VHH)
VHH: QVQLVESGGGLVEPGGSLRLSCAVSGSTFSMNVMGWYRQAPGKHREWVGSIGTGGGTNYPDSVKGRFTISRDNVKKTVYLQMNSLKPEDTAVYYCNKIPHNWGWGQGTQVTVSS
notes: Llama nanobody, pHEN6 vector, pelB signal, produced in E. coli periplasm; also called nanobody I3; 13; not shown: C-terminal 6-His tag
B2: VHH-H4 (VHH)
VHH: EVQLQASGGGFVQPGGSLRLSCAASGFTSEISNMGWFRQAPGKEREFVSAISGTHTTQTYYADSVKGRFTISRDNSKNTVYLQMNSLRAEDTATYYCAAEQDMSDLWLGSYWGQGTQVTVSS
notes: Synthetic nanobody (hsd2ab library), pET29b(+) vector, pelB signal; also called nanobody-H4; not shown: C-terminal 6-His tag
B3: VHH-H9 (VHH)
VHH: EVQLQASGGGFVQPGGSLRLSCAASGDTFNLTTMGWFRQAPGKEREFVSAISSSNTHIAYYADSVKGRFTISRDNSKNTVYLQMNSLRAEDTATYYCAYTYYGKNGKGMVYWGQGTQVTVSS
notes: Synthetic nanobody (hsd2ab library), pET29b(+) vector, pelB signal; not shown: C-terminal 6-His tag
B4: VHH-H8 (VHH)
VHH: EVQLQASGGGFVQPGGSLRLSCAASGYTSDLTVMGWFRQAPGKEREFVSAISSHFGPPHYYADSVKGRFTISRDNSKNTVYLQMNSLRAEDTATYYCAMRERRHSWWYWGQGTQVTVSS
notes: as for B3
B5: VHH-I2 (VHH)
VHH: QVQLVESGGGWVQPGGSLRLSCAASGITFSTKTMGWYRQRPGKRREWIGSISPTGFTNYADAVKGRVTISRDNGENTVYLQMNSLKPEDTAVYFCNGVPPVIIDGQSVAYWGQGTQVTVSS
notes: Llama nanobody, pHEN6 vector, pelB signal, produced in E. coli periplasm; also called nanobody I2; not shown: C-terminal 6-His tag
B6: VHH-H2 (VHH)
VHH: EVQLQASGGGFVQPGGSLRLSCAASGSTSRDEGMGWFRQAPGKEREFVSAISRDHGWREYYADSVKGRFTISRDNSKNTVYLQMNSLRAEDTATYYCAPVIIDTMEVIPLYWGQGTQVTVSS
notes: as for B3
B7: VHH-H10 (VHH)
VHH: EVQLQASGGGFVQPGGSLRLSCAASGYGWWIYEMGWFRQAPGKEREFVSAISWADGTRTYYADSVKGRFTISRDNSKNTVYLQMNSLRAEDTATYYCAIYILEGTQGVPIYWGQGTQVTVSS
notes: as for B3
B8: VHH-H7 (VHH)
VHH: EVQLQASGGGFVQPGGSLRLSCAASGYYFRGEDMGWFRQAPGKEREFVSAISDDSTATIYYADSVKGRFTISRDNSKNTVYLQMNSLRAEDTATYYCAPGWYIYLDWSESGSAYWGQGTQVTVSS
notes: as for B3
B9: VHH-I11 (VHH)
VHH: QVQLVESGGGTVQAGGSLRLSCTASGRGRNAMGWYRQVPGGKRELVASINRGGTTDYTDSVKDRFTISRDSAKNTVYLQMDSLQPEDTAVYYCNAESTVIPGHIYDYWGRGTQVTVSS
notes: Llama nanobody, pHEN6 vector, pelB signal, produced in E. coli periplasm; also called nanobody I11; not shown: C-terminal 6-His tag
B10: VHH-I5 (VHH)
VHH: QVQLVESGGGLVQPGGFLRLLCTASGNIFSSNTMGWYRRAPGKQREWVASISKGGSTNYADSVKDRFTISRSITKNTVYLQMVNLKPEDTAVYYCNPVPDSDNYASGQGTQVTVSS
notes: Llama nanobody, pHEN6 vector, pelB signal, produced in E. coli periplasm; also called nanobody-I5; 15; not shown: C-terminal 6-His tag
B11: VHH-H6 (VHH)
VHH: EVQLQASGGGFVQPGGSLRLSCAASGFTSARYNMGWFRQAPGKEREFVSAISRHTDRQTYYADSVKGRFTISRDNSKNTVYLQMNSLRAEDTATYYCAVGMMPKQKQYWGQGTQVTVSS
notes: as for B3
B12: VHH-I4 (VHH)
VHH: QVQLVESGGGSVAAGESLTLSCRMSGSTSSIQAMGWYRRAPGNQREWLATISPRGNTNYADSVKGRFTISRDNAKNTVYLQMNSLKPADTAVYYCNTVPSGGIPWGQGTQVTVSS
notes: Llama nanobody, pHEN6 vector, pelB signal, produced in E. coli periplasm; also called nanobody I4; not shown: C-terminal 6-His tag
B13: VHH-H3 (VHH)
VHH: EVQLQASGGGFVQPGGSLRLSCAASGATYWFSSMGWFRQAPGKEREFVSAISYWFDDIEYYADSVKGRFTISRDNSKNTVYLQMNSLRAEDTATYYCAMWNEQTGEEYWGQGTQVTVSS
notes: as for B3
B14: VHH-I7 (VHH)
VHH: QVQLVESGGGLVPPGGSLKLSCTASGSIFSSNVMGWYRRAPGKQREWVASISRGGGTNYPDSVKGRFTVSRDIAKNTVYLQISSLKPEDTAVYYCNPIPYSGDYVSGQGTQVTVSS
notes: Llama nanobody, pHEN6 vector, pelB signal, produced in E. coli periplasm; also called nanobody I7; 17; not shown: C-terminal 6-His tag
B15: VHH-H1 (VHH)
VHH: EVQLQASGGGFVQPGGSLRLSCAASGRTWSFYAMGWFRQAPGKEREFVSAISWNGGGEHYYADSVKGRFTISRDNSKNTVYLQMNSLRAEDTATYYCAHMEFSQSDYIISKWIYWGQGTQVTVSS
notes: as for B3
B16: VHH-I5 biotinylated at its C-terminus using sortase (VHH)
VHH: B10 VHH
modifications: C-terminal biotin (GGGK-biotin ligated by Sortase A at the LPETG site)
notes: pHEN vector with LPETG and 6-His; Captured on streptavidin; also called biotinylated VHH-I5; not shown: GGGK-biotin ligated by Sortase A in place of the 6-His label
B17: VHH-H4 biotinylated at its C-terminus using sortase (VHH)
VHH: B2 VHH
modifications: C-terminal biotin (GGGK-biotin ligated by Sortase A at the LPETG site)
notes: pHEN vector with LPETG and 6-His; Captured on streptavidin; also called biotinylated VHH-H4; biotinylated H4 nanobody; not shown: GGGK-biotin ligated by Sortase A in place of the 6-His label

The target of one test is T1, CUB1 domain of PCPE-1. Kind of test: SPR competition: VHH (50 nM) co-injected with the soluble CUB1 domain (250 nM) over immobilized PCPE-1.
As to B1, the binding result was “no binding (tested: 250 nM)”.

A further test addresses T2, PCPE-1 (Procollagen C-proteinase …). Kind of test: SPR competition: PCPE-1 (5 nM) co-injected with VHH on immobilized Mini III; VHH-H4 alone, 5 nM PCPE-1. The protocol:
(§1) Surface plasmon resonance (SPR) experiments were carried out on a Biacore T200 (Cytiva). The ligand proteins, in solution in 10 mM HEPES pH 7.4 buffer for PCPE-1 or 10 mM sodium acetate pH 4.5 buffer for mini-procollagen III and streptavidin, are immobilized on CM5 chips by amine coupling. Analytes are diluted in running buffer (10 mM HEPES pH 7.4, 0.15 M NaCl, 5 mM CaCl₂), 0.05% P20) and injected at a flow rate of 30 or 50 μL/min. Competition, epitope binning and kinetics experiments were all carried out at 25° C. Regeneration was achieved by successive injection of 2 M guanidine chloride and 0.5 M EDTA for 30 sec. Sensorgrams were analyzed with Biacore T200 Evaluation v3.2.1 (Cytiva), using the most suitable models. IC50 was determined by non-linear regression using GraphPad Prism (v8.2.1).
(§2) What is more, their antagonistic effects are additive, and co-injection of a mixture of VHH-I5 and VHH-H4 with PCPE-1 virtually eliminates its interaction with Mini III.
On to B2, for which the IC50 (usually the midpoint of a concentration-inhibition curve) was around 45 nM.

The target is the same in the next test. Kind of test: SPR, VHH injected on immobilized PCPE-1. For orientation: SPR reads the build-up and loss of mass on a sensor chip optically.
Turning to B3, the Kd (in general, the constant that tells how readily two partners part at equilibrium) was above 250 nM.

B4: the Kd was above 250 nM.

B5: the Kd turned out to be 154 nM.

For the molecule B6, the Kd was above 250 nM.

Regarding B7, the Kd is 18 nM.

With B1, the Kd was 16 nM.

As for B8, the Kd came out at 152 nM.

B9: the Kd was determined as 161 nM.

Consider B10, for which the Kd turned out to be 7.2 nM.

In the case of B11, the Kd was above 250 nM.

As for B12, the Kd is above 250 nM.

Regarding B13, the Kd was above 250 nM.

Turning to B14, the Kd came to 12.8 nM.

Take B2: the Kd was 30 nM.

Consider B15, for which the Kd was above 250 nM.

The target of the next test is T3, CUB2 domain of PCPE-1. Kind of test: SPR competition: VHH (50 nM) co-injected with the soluble CUB2 domain (250 nM) over immobilized PCPE-1.
With B7, the binding result is reported as “no binding (tested: 250 nM)”.

B2: the binding result is on record as “no binding (tested: 250 nM)”.

For another test, the target named is T2, PCPE-1 (Procollagen C-proteinase …). Kind of test: SPR competition: PCPE-1 (5 nM) co-injected with VHH on immobilized Mini III; VHH-I5 alone, 5 nM PCPE-1. The protocol:
as §1, §2
As to B10, the IC50 was around 24 nM.

The next test has the same target. Kind of test: SPR, biotinylated VHH on streptavidin chip, PCPE-1 injected, 1:1 binding model. The protocol: (§3) FIG. 2D: VHHs […] is biotinylated and immobilized on a streptavidin chip (813 RU), then increasing concentrations of PCPE-1 (black) or PCPE-2 (grey) are injected.
(§4) FIG. 2E: VHH H4 is biotinylated and immobilized on a streptavidin chip (491 RU), then increasing concentrations of PCPE-1 or PCPE-2 are injected. [0038] D, E: Interactions are modeled (dotted line) using the Langmuir model (Biacore T200 Evaluation software, Cytiva)
(§5) PCPE-2 is a protein in the same family as PCPE-1, with a 43% identical amino acid sequence. It shares certain activities with PCPE-1, but also has very different specific functions. The specificity of nanobody interaction for PCPE-1 versus PCPE-2 was analyzed by SPR. To achieve this, VHH-I5 and VHH-H4 were biotinylated at their C-terminus using sortase, then immobilized on a streptavidin surface. […] The affinity of VHH-I5 and -H4 for PCPE-1 is therefore at least 250 times greater than for PCPE-2.
Consider B16, for which the Kd came out at 1.45 nM; the koff (in general, a measure of how fast the partners let go of each other) is 0.00136 s⁻¹; the kon (usually the rate constant with which the complex forms) is 937000 M⁻¹ s⁻¹.

B17: the Kd was determined as 3.88 nM, the koff turned out to be 0.0195 s⁻¹ and the on-rate (kon) worked out at 5.04e+06 M⁻¹ s⁻¹.

The target of the next test is T4, PCPE-2 (with a 6-his N-terminal tag). Kind of test: SPR, biotinylated VHH on streptavidin chip, PCPE-2 injected. The protocol:
as §3, §4, §5
With B16, the Kd was above 1000 nM.

As to B17, the Kd was above 1000 nM.

The target in another test is T2, PCPE-1 (Procollagen C-proteinase …). Kind of test: SPR, biotinylated VHH on streptavidin chip; reference PCPE-2. The protocol: as §3, §4, §5
Consider B16, for which the “fold affinity for PCPE-1 over PCPE-2” value is at least 250 fold.

As to B17, the “fold affinity for PCPE-1 over PCPE-2” value was at least 250 fold.
